Source: patent publication US20260232827A1 (Zymeworks, published 2026)

Columns and labels:
[1] = target: T1, human sodium-dependent phosphate transporter 2B (NaPi2b) (human, UniProt O95436 1-690); assay: cell-based or functional assay
T1 sequence: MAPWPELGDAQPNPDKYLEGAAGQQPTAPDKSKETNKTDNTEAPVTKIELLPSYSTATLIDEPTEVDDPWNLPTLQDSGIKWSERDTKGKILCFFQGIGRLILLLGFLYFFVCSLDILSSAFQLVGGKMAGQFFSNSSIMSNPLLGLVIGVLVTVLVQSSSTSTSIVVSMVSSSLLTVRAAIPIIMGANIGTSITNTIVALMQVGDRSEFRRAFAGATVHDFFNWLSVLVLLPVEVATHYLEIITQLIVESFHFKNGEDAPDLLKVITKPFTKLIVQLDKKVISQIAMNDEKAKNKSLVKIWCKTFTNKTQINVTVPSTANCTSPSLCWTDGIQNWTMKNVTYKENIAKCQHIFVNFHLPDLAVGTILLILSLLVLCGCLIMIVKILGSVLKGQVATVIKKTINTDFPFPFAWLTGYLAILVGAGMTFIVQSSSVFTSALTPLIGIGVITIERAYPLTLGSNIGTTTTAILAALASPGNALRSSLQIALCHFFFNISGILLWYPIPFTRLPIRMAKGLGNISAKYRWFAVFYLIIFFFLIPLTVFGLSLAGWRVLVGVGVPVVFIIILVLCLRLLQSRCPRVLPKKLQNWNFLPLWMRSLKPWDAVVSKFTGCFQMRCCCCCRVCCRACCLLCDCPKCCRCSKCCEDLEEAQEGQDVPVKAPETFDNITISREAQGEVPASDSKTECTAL

[2] = target: T2, human NaPi2b (sodium-dependent phosphate transporter 2B) (human, UniProt O95436 1-690); assay: cell-based or functional assay
T2 sequence: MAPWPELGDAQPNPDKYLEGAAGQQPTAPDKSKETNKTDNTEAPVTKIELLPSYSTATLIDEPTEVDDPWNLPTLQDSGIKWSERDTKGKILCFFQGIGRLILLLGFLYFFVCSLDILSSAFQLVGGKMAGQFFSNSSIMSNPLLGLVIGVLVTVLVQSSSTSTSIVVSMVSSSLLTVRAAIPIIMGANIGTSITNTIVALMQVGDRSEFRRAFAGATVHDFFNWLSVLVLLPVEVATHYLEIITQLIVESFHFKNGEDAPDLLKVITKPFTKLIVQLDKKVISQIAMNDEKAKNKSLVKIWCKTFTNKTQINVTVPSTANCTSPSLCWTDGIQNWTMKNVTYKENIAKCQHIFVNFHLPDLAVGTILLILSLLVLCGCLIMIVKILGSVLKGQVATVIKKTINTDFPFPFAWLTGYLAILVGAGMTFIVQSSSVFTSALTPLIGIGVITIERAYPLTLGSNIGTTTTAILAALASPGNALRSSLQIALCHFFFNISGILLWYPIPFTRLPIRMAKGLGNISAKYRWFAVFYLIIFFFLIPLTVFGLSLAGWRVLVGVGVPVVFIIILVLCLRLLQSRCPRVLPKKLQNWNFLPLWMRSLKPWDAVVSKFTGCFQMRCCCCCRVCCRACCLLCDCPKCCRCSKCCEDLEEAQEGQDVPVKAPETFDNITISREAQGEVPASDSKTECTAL

[3] = target: T3, human sodium-dependent phosphate transporter 2B (NaPi2b) (human, UniProt O95436 1-690); assay: flow cytometry, IGROV-1 cells (endogenous NaPi2b); set-up: unit not given here
T3 construct: UniProt ID is given as 095436 [sic]; also called hNaPi2b; Hu NaPi2b
T3 sequence: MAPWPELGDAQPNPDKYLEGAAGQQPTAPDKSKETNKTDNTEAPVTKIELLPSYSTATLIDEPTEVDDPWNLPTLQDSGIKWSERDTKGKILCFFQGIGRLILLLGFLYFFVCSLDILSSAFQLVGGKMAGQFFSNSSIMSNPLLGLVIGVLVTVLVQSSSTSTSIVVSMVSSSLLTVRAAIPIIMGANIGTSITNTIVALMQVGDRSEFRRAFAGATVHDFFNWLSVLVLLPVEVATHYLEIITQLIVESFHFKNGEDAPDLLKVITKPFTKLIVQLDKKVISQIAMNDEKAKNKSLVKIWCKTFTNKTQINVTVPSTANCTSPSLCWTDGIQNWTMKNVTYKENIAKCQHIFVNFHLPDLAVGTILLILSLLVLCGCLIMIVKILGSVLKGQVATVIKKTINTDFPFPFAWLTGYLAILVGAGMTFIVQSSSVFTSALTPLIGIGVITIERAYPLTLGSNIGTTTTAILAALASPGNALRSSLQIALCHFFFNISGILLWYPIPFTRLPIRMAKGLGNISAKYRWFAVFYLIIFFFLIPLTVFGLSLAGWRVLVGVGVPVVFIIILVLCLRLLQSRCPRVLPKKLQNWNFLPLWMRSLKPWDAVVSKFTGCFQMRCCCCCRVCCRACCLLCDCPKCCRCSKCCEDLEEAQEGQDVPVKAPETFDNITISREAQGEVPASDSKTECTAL

[4] = target: T3, human sodium-dependent phosphate …; assay: flow cytometry, IGROV-1 cells (endogenous NaPi2b); apparent Kd

B1: v29456-MT-GGFG-AM-Compound 136 DAR 8 (antibody, human IgG1, kappa)
heavy: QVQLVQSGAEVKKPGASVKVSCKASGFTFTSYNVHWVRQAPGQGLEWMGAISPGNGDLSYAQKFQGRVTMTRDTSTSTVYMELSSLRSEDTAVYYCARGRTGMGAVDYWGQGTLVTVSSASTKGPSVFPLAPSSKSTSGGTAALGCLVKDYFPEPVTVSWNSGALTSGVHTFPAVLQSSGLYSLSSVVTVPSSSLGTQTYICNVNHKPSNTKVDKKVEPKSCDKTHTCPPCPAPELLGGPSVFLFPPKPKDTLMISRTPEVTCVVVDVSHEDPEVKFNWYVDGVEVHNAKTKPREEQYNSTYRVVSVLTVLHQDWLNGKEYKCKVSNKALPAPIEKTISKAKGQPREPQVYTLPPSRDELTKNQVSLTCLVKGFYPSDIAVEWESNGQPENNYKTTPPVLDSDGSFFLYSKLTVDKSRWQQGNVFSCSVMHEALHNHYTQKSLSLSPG
light: DVQMTQSPSSLSASVGDRVTITCRASQDVYSYLNWYQQKPGKAVKLLIYYTSRLQSGVPSRFSGSGSGTDYTLTISSLQPEDFATYYCQQYNIFPWTFGQGTKLEIKRTVAAPSVFIFPPSDEQLKSGTASVVCLLNNFYPREAKVQWKVDNALQSGNSQESVTEQDSKDSTYSLSSTLTLSKADYEKHKVYACEVTHQGLSSPVTKSFNRGEC
modifications: drug-linker MT-GGFG-AM-Compound 136 on cysteine thiols after TCEP reduction, positions not given; DAR 8 for the whole antibody
EC50, in vitro cytotoxicity, 2D monolayer, HCC-78 [1]: 0.43 nM
EC50, in vitro cytotoxicity, 2D monolayer, IGROV-1 [1]: 4.48 nM

B2: v29456-MT-GGFG-AM-Compound 129 DAR 8 (antibody, human IgG1, kappa)
heavy: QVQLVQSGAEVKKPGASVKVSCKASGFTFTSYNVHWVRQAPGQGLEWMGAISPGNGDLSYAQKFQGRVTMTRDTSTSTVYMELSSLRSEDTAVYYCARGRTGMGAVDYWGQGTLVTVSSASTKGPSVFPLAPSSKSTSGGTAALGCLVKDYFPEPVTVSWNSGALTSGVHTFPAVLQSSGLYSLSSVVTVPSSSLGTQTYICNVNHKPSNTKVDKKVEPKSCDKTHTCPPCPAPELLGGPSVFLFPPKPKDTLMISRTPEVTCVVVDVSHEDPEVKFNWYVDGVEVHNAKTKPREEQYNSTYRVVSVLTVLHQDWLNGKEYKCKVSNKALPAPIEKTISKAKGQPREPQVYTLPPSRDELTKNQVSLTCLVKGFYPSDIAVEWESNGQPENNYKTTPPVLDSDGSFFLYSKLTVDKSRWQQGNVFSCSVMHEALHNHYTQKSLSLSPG
light: DVQMTQSPSSLSASVGDRVTITCRASQDVYSYLNWYQQKPGKAVKLLIYYTSRLQSGVPSRFSGSGSGTDYTLTISSLQPEDFATYYCQQYNIFPWTFGQGTKLEIKRTVAAPSVFIFPPSDEQLKSGTASVVCLLNNFYPREAKVQWKVDNALQSGNSQESVTEQDSKDSTYSLSSTLTLSKADYEKHKVYACEVTHQGLSSPVTKSFNRGEC
modifications: drug-linker MT-GGFG-AM-Compound 129 on cysteine thiols after TCEP reduction, positions not given; DAR 8 for the whole antibody
EC50, in vitro cytotoxicity, 2D monolayer, HCC-78 [1]: 0.42 nM
EC50, in vitro cytotoxicity, 2D monolayer, IGROV-1 [1]: 1.11 nM

B3: v29456-MT-GGFG-Compound 148 DAR 8 (antibody, human IgG1, kappa)
heavy: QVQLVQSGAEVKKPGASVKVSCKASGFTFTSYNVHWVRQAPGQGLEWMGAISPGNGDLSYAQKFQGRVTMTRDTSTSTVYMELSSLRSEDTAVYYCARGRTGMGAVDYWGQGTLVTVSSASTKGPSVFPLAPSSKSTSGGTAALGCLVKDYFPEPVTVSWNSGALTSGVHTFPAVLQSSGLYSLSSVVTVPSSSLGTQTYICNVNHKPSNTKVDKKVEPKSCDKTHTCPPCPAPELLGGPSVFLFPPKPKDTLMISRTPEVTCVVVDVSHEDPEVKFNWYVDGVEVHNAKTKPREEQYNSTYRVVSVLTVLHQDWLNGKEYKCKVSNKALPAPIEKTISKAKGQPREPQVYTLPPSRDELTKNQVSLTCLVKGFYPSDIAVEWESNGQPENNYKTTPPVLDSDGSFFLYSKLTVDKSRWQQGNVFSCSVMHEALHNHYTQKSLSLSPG
light: DVQMTQSPSSLSASVGDRVTITCRASQDVYSYLNWYQQKPGKAVKLLIYYTSRLQSGVPSRFSGSGSGTDYTLTISSLQPEDFATYYCQQYNIFPWTFGQGTKLEIKRTVAAPSVFIFPPSDEQLKSGTASVVCLLNNFYPREAKVQWKVDNALQSGNSQESVTEQDSKDSTYSLSSTLTLSKADYEKHKVYACEVTHQGLSSPVTKSFNRGEC
modifications: drug-linker MT-GGFG-Compound 148 on cysteine thiols after TCEP reduction, positions not given; DAR 8 for the whole antibody
EC50, in vitro cytotoxicity, 2D monolayer, HCC-78 [1]: 1.98 nM

B4: palivizumab (anti-RSV antibody, v21995) (antibody, human IgG1, kappa, V domains shown)
VH: QVTLRESGPALVKPTQTLTLTCTFSGFSLSTSGMSVGWIRQPPGKALEWLADIWWDDKKDYNPSLKSRLTISKDTSKNQVVLKVTNMDPADTATYYCARSMITNWYFDVWGAGTTVTVSS
VL: DIQMTQSPSTLSASVGDRVTITCKSQLSVGYMHWYQQKPGKAPKLLIYDTSKLASGVPSRFSGSGSGTEFTLTISSLQPDDFATYYCFQGSGYPFTFGGGTKLEIKR
Internalized Fluorescence Fold-Over Untreated, H441, 4 h, 2.5 nM [2]: 1 fold
Internalized Fluorescence Fold-Over Untreated, H441, 24 h, 2.5 nM [2]: 1.1 fold
Internalized Fluorescence Fold-Over Untreated, HCC-78, 4 h, 2.5 nM [2]: 1 fold
Internalized Fluorescence Fold-Over Untreated, HCC-78, 24 h, 2.5 nM [2]: 1.1 fold
Internalized Fluorescence Fold-Over Untreated, IGROV-1, 4 h, 2.5 nM [2]: 0.9 fold
Internalized Fluorescence Fold-Over Untreated, IGROV-1, 24 h, 2.5 nM [2]: 1 fold

B5: v18993 (lifastuzumab)-DL2 (antibody, human IgG1, kappa)
heavy 1: GEVQLVESGGGLVQPGGSLRLSCAASGFSFSDFAMSWVRQAPGKGLEWVATIGRVAFHTYYPDSMKGRFTISRDNSKNTLYLQMNSLRAEDTAVYYCARHRGFDVGHFDFWGQGTLVTVSSASTKGPSVFPLAPSSKSTSGGTAALGCLVKDYFPEPVTVSWNSGALTSGVHTFPAVLQSSGLYSLSSVVTVPSSSLGTQTYICNVNHKPSNTKVDKKVEPKSCDKTHTCPPCPAPELLGGPSVFLFPPKPKDTLMISRTPEVTCVVVDVSHEDPEVKFNWYVDGVEVHNAKTKPREEQYNSTYRVVSVLTVLHQDWLNGKEYKCKVSNKALPAPIEKTISKAKGQPREPQVYVYPPSRDELTKNQVSLTCLVKGFYPSDIAVEWESNGQPENNYKTTPPVLDSDGSFALVSKLTVDKSRWQQGNVFSCSVMHEALHNHYTQKSLSLSPG
heavy 2: not shown
light: GDIQMTQSPSSLSASVGDRVTITCRSSETLVHSSGNTYLEWYQQKPGKAPKLLIYRVSNRFSGVPSRFSGSGSGTDFTLTISSLQPEDFATYYCFQGSFNPLTFGQGTKVEIKRTVAAPSVFIFPPSDEQLKSGTASVVCLLNNFYPREAKVQWKVDNALQSGNSQESVTEQDSKDSTYSLSSTLTLSKADYEKHKVYACEVTHQGLSSPVTKSFNRGEC
modifications: as above; maleimide functionalized auristatin drug linker (DL2); sites and DAR not stated
notes: also called lifastuzumab-DL2 ADC
Bmax [3]: 39800
Kd [4]: 3 nM

B6: v29455 (H2L2) (antibody, human IgG1, kappa, V domains shown)
VH: QVQLVQSGAEVKKPGASVKVSCKASGFTFTSYNVHWVRQAPGQGLEWIAAISPGNGDLSYAQKFQGRVTMTVDTSTSTVYMELSSLRSEDTAVYYCARGRTGMGAVDYWGQGTLVTVSS
VL: DVQMTQSPSSLSASVGDRVTITCRASQDVYSYLNWYQQKPGKAVKLLIYYTSRLQSGVPSRFSGSGSGTDYTLTISSLQPEDFATYYCQQYNIFPWTFGQGTKLEIKR
notes: Humanized IgG1/kappa
Bmax [3]: 41900
Kd [4]: 1.18 nM

B7: v29460 (H1L1) (antibody, human IgG1, kappa, V domains shown)
VH: QVQLVQSGAEVKKPGASVKVSCKASGFTFTSYNVHWVRQAPGQGLEWMGAISPGNGDLSYAQKFQGRVTMTRDTSTSTVYMELSSLRSEDTAVYYCARGRTGMGAVDYWGQGTLVTVSS
VL: DIQMTQSPSSLSASVGDRVTITCRASQDVYSYLNWYQQKPGKAPKLLIYYTSRLQSGVPSRFSGSGSGTDFTLTISSLQPEDFATYYCQQYNIFPWTFGQGTKLEIKR
notes: Humanized IgG1/kappa
Bmax [3]: 40100
Kd [4]: 1.67 nM
